# Measured values taken from patent US20250092373A1, “CRISPR-MEDIATED DELETION OF FLI1 IN NK CELLS” (The Regents of the University of California, priority 2022, published 2025).
# B1: IL-2: mouse IL-2 cytokine used to stimulate splenic NK cells (protein, UniProt P04351 21-169, looked up)
# Interleukin-2: APTSSSTSSSTAEAQQQQQQQQQQQQHLEQLLMDLQELLSRMENYRNLKLPRMLTFKFYLPKQATELKDLQCLEDELGPLRHVLDLTQSKSFQLEDAENFISNIRVTVVKLKGSDNTFECQFDDESATVVDFLRRWIAFCQSIISTSPQ
# B2: IL-12: cytokine used to stimulate NK cells ex vivo (protein, UniProt P29459 23-219; P29460 23-328, looked up)
# Interleukin-12 subunit alpha: RNLPVATPDPGMFPCLHHSQNLLRAVSNMLQKARQTLEFYPCTSEEIDHEDITKDKTSTVEACLPLELTKNESCLNSRETSFITNGSCLASRKTSFMMALCLSSIYEDLKMYQVEFKTMNAKLLMDPKRQIFLDQNMLAVIDELMQALNFNSETVPQKSSLEEPDFYKTKIKLCILLHAFRIRAVTIDRVMSYLNAS
# Interleukin-12 subunit beta: IWELKKDVYVVELDWYPDAPGEMVVLTCDTPEEDGITWTLDQSSEVLGSGKTLTIQVKEFGDAGQYTCHKGGEVLSHSLLLLHKKEDGIWSTDILKDQKEPKNKTFLRCEAKNYSGRFTCWWLTTISTDLTFSVKSSRGSSDPQGVTCGAATLSAERVRGDNKEYEYSVECQEDSACPAAEESLPIEVMVDAVHKLKYENYTSSFFIRDIIKPDPPKNLQLKPLKNSRQVEVSWEYPDTWSTPHSYFSLTFCVQVQGKSKREKKDRVFTDKTSATVICRKNASISVRAQDRYYSSSWSEWASVPCS
# B3: IL-15: mouse IL-15 cytokine used to stimulate splenic NK cells (protein, UniProt P48346 49-162, looked up)
# Interleukin-15: NWIDVRYDLEKIESLIQSIHIDTTLYTDSDFHPSCKVTAMNCFLLELQVILHEYSNMTLNETVRNVLYLANSTLSSNKNVAESGCKECEELEEKTFTEFLQSFIRIVQMFINTS
# Tests used:
# STAT5 = test: Fli1 protein by western blot in IL-15-stimulated splenic NK cells with STAT5 inhibitor or vehicle; type: cell-based, mouse; details: 100 μM inhibitor vs vehicle control (DMSO)
# Experimental: (§1) For plate-bound antibody stimulation experiments, ˜5×10^5 isolated NK cells were stimulated with […] precoated antibody against NK1.1 (PK136) for 4 hours in complete media containing Brefeldin A (1:1000; BioLegend) and Monensin (2 uM; BioLegend). Cells were cultured in media alone as a negative control. In cytokine stimulation experiments, isolated NK cells were incubated with various concentrations of mouse IL-15 or IL-2, in the presence or absence of 100 μM CAS 285986-31-4 STAT5 inhibitor (Millipore Sigma).
# (§2) Protein was extracted from enriched primary splenic NK cells using Pierce RIPA buffer (Thermo-Fisher) with Halt protease inhibitor cocktail (Thermo-Fisher) and protein concentration was quantified using the Pierce BCA Protein Assay kit (Thermo-Fisher). Samples were electrophoresed on NuPage Novex 4-12% Bis-Tris Protein Gels, transferred to PVDF membranes, and blocked for one hour at room temperature with 5% w/v nonfat milk in 1× TBS and 0.1% Tween-20. Immunoblots were performed using rabbit anti-Fli1 (Abcam ab133485), rabbit anti-β-actin (Cell Signaling CST4970), and rabbit anti-GAPDH (Millipore Sigma G9545). Proteins were detected using the SuperSignal West Pico PLUS ECL kit (Thermo-Fisher) and visualized using the Azure Biosystems c280 imager. Band density was quantified using ImageJ version 1.53.
# splenic NK cells [1] = details: 3 hours after cytokine stimulation ex vivo; published RNA-seq datasets (GSE140044); cited from earlier work
# splenic NK cells [2] = test: Fli1 protein by immunoblot of purified splenic NK cells cultured with IL-2 or IL-15; type: cell-based, mouse; details: for Fli1 protein induction: 48 h culture with increasing doses of cytokine
# Experimental: as §1, §2
Molecule,reduction of Fli1 protein (STAT5),Fli1 transcripts (splenic NK cells [1]),Fli1 protein induction (splenic NK cells [2]),"Fli1 protein induced, IL-15 compared with IL-2 (splenic NK cells [2]; 48 h culture, at each dose)"
O=C(N/N=C/c1coc2ccccc2c1=O)c1cccnc1 [STAT5 inhibitor],~50%,,,
IL-18: cytokine used to stimulate NK cells ex vivo,,decreased Fli1 expression,,
B1,,induced Fli1 transcripts,induced by both IL-2 and IL-15 in a dose-dependent manner,
B2,,decreased Fli1 expression,,
B3,,induced Fli1 transcripts,induced by both IL-2 and IL-15 in a dose-dependent manner,more Fli1 protein than IL-2 at each dose
